T1: Mouse PD-1 overexpressed on HEK293 cells (mouse, UniProt Q02242 25-288)
T1 construct: whole, on cells
T1 sequence (looked up): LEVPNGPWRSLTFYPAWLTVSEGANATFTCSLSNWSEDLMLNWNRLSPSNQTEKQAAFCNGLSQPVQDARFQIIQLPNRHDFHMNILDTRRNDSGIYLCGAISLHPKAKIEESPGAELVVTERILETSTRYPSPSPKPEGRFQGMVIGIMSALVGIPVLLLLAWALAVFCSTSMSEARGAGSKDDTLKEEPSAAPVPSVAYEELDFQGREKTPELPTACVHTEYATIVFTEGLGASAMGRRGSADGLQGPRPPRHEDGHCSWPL

T2: Recombinant mouse PD-1 extracellular domain (with an immunoglobulin Fc region or a His tag) (mouse, UniProt Q02242 25-169)
T2 construct: extracellular domain; Coated on ELISA plates; not shown: either an immunoglobulin Fc region or a His tag
T2 sequence (looked up): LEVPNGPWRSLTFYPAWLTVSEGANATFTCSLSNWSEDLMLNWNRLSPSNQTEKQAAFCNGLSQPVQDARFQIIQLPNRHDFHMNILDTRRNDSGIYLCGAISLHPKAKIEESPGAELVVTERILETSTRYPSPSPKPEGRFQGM

B1: Anti-PD-1 IgG #1 (antibody, V domains shown)
VH: EVQLQESGPGLVKPSQTLSLTCTVTGYSITSDYAWNWIRQPPGKKLEWMGYINYSGSTSYNPSLKSRVTISRDTSKNQFSLKLSSVTAADTAVYYCARWIGSSAWYFDVWGQGTLVTVS
VL: DVLMTQTPLSLSVTPGQPASISCRSGQNIVHSNGNTYLEWYLQKPGQSPKLLIYKVSNRFFGVPDRISGSGSGTDFTLKISRVEAEDVGVYFCFQGSHVPFTFGQGTKLEIK
notes: IgG format; In the 'IgG/xlink' columns it was crosslinked 1:1 with goat anti-human IgG F(ab')2 fragment; also called Antibody #1 (IgG format)
B2: Anti-PD-1 Hexameric IgM (IgHM) #1 (antibody, V domains shown)
VH: B1 VH
VL: B1 VL
B3: Anti-PD-1 IgM #1 (antibody)
VH: B1 VH
VL: B1 VL
chain: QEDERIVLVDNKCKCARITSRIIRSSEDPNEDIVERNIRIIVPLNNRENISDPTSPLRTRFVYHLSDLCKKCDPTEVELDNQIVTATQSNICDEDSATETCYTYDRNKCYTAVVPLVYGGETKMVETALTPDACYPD
notes: also called Antibody #1 (IgM format); pentameric IgM #1
B4: Anti-PD-1 IgG #4 (antibody, V domains shown)
VH: QVQLVQSGSELKKPGASVKVSCKASGYTFTDYSMHWVRQAPGQGLEWMGWINIETGEPTYAQGFTGRFVFSLDTSVSTAYLQISSLKAEDTAVYFCARDYYGTYFYAMDYWGQGTLVTVSS
VL: EIVLTQSPATLSLSPGERATLSCTASSSVSSSYLHWYQQKPGLAPRLLIYSTSNLASGIPDRFSGSGSGTDYTLTISRLEPEDFAVYYCHQYHRSPLTFGQGTKLEIK
B5: Anti-PD-1 IgM #4 (antibody)
VH: B4 VH
VL: B4 VL
chain: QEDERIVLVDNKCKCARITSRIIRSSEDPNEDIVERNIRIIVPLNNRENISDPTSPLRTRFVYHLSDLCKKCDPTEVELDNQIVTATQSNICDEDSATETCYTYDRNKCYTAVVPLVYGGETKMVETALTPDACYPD
B6: Anti-PD-1 pentameric IgM #5 (antibody)
VH: QVQLVESGGGVVQPGRSLRLDCKASGITFSNSGMHWVRQAPGKGLEWVAVIWYDGSKRYYADSVKGRFTISRDNSKNTLFLQMNSLRAEDTAVYYCATNDDYWGQGTLVTVSS
VL: EIVLTQSPATLSLSPGERATLSCRASQSVSSYLAWYQQKPGQAPRLLIYDASNRATGIPARFSGSGSGTDFTLTISSLEPEDFAVYYCQQSSNWPRTFGQGTKVEIK
chain: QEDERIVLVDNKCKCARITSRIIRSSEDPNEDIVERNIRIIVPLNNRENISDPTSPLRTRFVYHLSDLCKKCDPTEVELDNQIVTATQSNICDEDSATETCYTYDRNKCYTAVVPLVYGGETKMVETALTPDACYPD
B7: Anti-PD-1 IgG #2 (antibody, V domains shown)
VH: QVQLQESGPGVVKPSGTLSLTCAISGGSIGSGGSIRSTRWWSWVRQSPGKGLEWIGEIYHSGSTNYNPSLKSRVTISLDKSRNHFSLRLNSVTAADTAVYYCARQDYGDSGDWYFDLWGKGTMVTVSS
VL: NFMLTQPHSVSESPGKTVTISCTRSSGSIASNSVQWYQQRPGSSPTTVIYEDNQRPSGVPDRFSGSIDSSSNSASLTVSGLKTEDEADYYCQSSDSSAVVFGSGTKLTVL
notes: IgG format; In the 'IgG/xlink' columns it was crosslinked 1:1 with goat anti-human IgG F(ab')2 fragment; also called Antibody #2 (IgG format); #2 IgG
B8: Anti-PD-1 IgM #2 (antibody)
VH: B7 VH
VL: B7 VL
chain: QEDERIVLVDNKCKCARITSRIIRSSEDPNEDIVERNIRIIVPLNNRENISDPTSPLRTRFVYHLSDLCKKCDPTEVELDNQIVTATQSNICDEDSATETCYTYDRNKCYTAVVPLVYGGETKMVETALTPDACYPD
notes: also called Antibody #2 (IgM format); pentameric IgM #2
B9: Anti-PD-1 Hexameric IgM (IgHM) #2 (antibody, V domains shown)
VH: B7 VH
VL: B7 VL
B10: Anti-PD-1 IgG #3 (antibody, V domains shown)
VH: QVQLVQSGAEVKKPGASVKVSCKVSGYSLSKYDMSWVRQAPGKGLEWMGIIYTSGYTDYAQKFQGRVTMTEDTSTDTAYMELSSLRSEDTAVYYCATGNPYYTNGFNSWGQGTLVTVSS
VL: DIQMTQSPSSLSASVGDRVTITCQASQSPNNLLAWYQQKPGKAPKLLIYGASDLPSGVPSRFSGSGSGTDFTLTISSLQPEDFATYYCQNNYYVGPVSYAFGGGTKVEIK
B11: Anti-PD-1 Hexameric IgM (IgHM) #3 (antibody, V domains shown)
VH: B10 VH
VL: B10 VL
B12: Anti-PD-1 IgM #3 (antibody)
VH: B10 VH
VL: B10 VL
chain: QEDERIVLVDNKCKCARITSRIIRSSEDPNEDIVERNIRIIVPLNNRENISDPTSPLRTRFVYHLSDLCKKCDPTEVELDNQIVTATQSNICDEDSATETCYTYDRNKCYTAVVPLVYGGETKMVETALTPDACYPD

Key:
[1] = target: T1, Mouse PD-1 overexpressed on HEK293 cells; assay: flow cytometry on HEK293 cells overexpressing mouse PD-1
Procedure: (§1) HEK293 cells were modified to overexpress human or mouse PD-1. Cells were expanded in puromycin-containing media to maintain selection, and aliquoted to 96 well V-bottom plates for antibody staining and flow cytometric analysis. Anti-PD-1 antibodies were added to cells in BD stain buffer with fetal bovine serum (BD Biosciences, cat. #554656) and incubated on ice for 20 minutes. Cells were then washed, and R-phycoerythrin (PE)-labeled anti-human IgG or anti-human IgM secondary antibodies were then added and incubated for an additional 20 minutes. Data were collected on a Beckman Coulter CYTOFLEX® cytometer and analyzed in FLOWJO™.

[2] = target: T3, Human PD-1 overexpressed on HEK293 cells (human, UniProt Q15116 25-288); assay: flow cytometry on HEK293 cells overexpressing human PD-1, PE anti-human IgG detection
T3 construct: whole, on cells
Procedure: as §1

[3] = target: T2, Recombinant mouse PD-1 extracellular …; assay: ELISA, plate-coated recombinant PD-1 extracellular domain
Procedure: (§2) An enzyme-linked immunosorbent assay (ELISA) was performed to assess the binding of anti-PD-1 antibodies to human, cynomolgus monkey, or mouse PD-1. Recombinant proteins containing the extracellular domain of PD-1 together with either an immunoglobulin Fc region or a His tag were used to coat wells of standard 96 well ELISA plates by overnight incubation at 4° C. Unbound recombinant protein was removed, Pierce SUPERBLOCK™ T20 was added, and plates were incubated for 10 minutes at room temperature with shaking. Plates were washed with phosphate buffered saline-TWEEN-20 (PBST), and anti-PD-1 antibodies were added in phosphate buffered saline (PBS) with 1% bovine serum albumin (BSA) and incubated for one hour at room temperature with shaking. Plates were then washed in PBST and incubated with horse radish peroxidase (HRP)-conjugated secondary antibodies in F(ab′)2 directed to either human IgG or human IgM. After one hour, plates were washed again with PBST, signal was developed with SUPERSIGNAL™ ELISA Pico substrate, and an ENVISION® luminometer (PerkinElmer) was used to record signal. Data were analyzed with […] PRISM®.

[4] = target: T4, PD-1 on PD-1 reporter Jurkat cells (PATHHUNTER Checkpoint Signaling Assay) (UniProt Q15116 25-288); assay: cell-based or functional assay
[5] = target: T5, Recombinant human PD-1 extracellular domain (with an immunoglobulin Fc region or a His tag) (human, UniProt Q15116 25-170); assay: ELISA, plate-coated recombinant PD-1 extracellular domain, HRP anti-human IgG detection
T5 construct: extracellular domain; Coated on ELISA plates; not shown: either an immunoglobulin Fc region or a His tag
Procedure: as §2

[6] = target: T4, PD-1 on PD-1 reporter Jurkat cells …; assay: cell-based or functional assay; remark: listed apart in the source
[7] = target: T4, PD-1 on PD-1 reporter Jurkat cells …; assay: cell-based or functional assay; remark: listed apart in the source
[8] = target: T4, PD-1 on PD-1 reporter Jurkat cells …; assay: cell-based or functional assay; remark: listed apart in the source
[9] = target: T3, Human PD-1 overexpressed on HEK293 cells; assay: flow cytometry on HEK293 cells overexpressing human PD-1, PE anti-human IgM detection
Procedure: as §1

[10] = target: T5, Recombinant human PD-1 extracellular …; assay: ELISA, plate-coated recombinant PD-1 extracellular domain, HRP anti-human IgM detection
Procedure: as §2

T5 sequence (Q15116 25-170): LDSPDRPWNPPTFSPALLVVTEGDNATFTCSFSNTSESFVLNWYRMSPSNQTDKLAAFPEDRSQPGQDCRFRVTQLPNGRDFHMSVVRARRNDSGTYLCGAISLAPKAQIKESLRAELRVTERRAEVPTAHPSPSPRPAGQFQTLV
T3 sequence (Q15116 25-288): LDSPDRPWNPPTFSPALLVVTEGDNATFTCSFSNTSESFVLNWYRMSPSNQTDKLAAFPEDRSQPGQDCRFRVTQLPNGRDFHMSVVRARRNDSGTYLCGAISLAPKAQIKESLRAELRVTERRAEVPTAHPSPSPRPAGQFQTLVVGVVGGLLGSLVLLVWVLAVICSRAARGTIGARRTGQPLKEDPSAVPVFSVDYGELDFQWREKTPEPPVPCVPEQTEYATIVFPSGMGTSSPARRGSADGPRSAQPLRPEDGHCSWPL
T4 sequence (Q15116 25-288): as above

| Binder | binding result [1] | binding result [3] | PD-1 Signaling EC50 (second incubation at 4 C), IgG [4] [nM] | PD-1 Signaling EC50 (second incubation at 4 C), IgG/xlink (crosslinked IgG) [4] [nM] | PD-1 Signaling EC50 (second incubation at 4 C), IgM [4] [nM] | PD-1 Signaling EC50 (method of Example 8), IgM [7] [nM] | also measured |
| --- | --- | --- | --- | --- | --- | --- | --- |
| B1 | no binding | no binding | 29 | 4.4 |  |  | EC50 [2]: 59 nM; EC50 [5]: 1.5 nM; PD-1 Signaling EC50 (PATHHUNTER Checkpoint Signaling Assay, reporter Jurkat cells), IgG [6]: 65 nM; PD-1 Signaling EC50 (method of Example 8), IgG [7]: 85 nM; PD-1 Signaling EC50 (method of Example 8), IgG/xlink (crosslinked IgG) [7]: 1.8 nM; PD-1 Signaling EC50, IgG/xlink (IgG crosslinked 1:1 with goat anti-human IgG F(ab')2 fragment) [8]: 0.65 nM |
| B2 |  |  |  |  |  |  | PD-1 Signaling EC50 (method of Example 8), IgHM [7]: 0.07 nM |
| B3 | no binding | no binding |  |  | 0.031 | 0.057 | EC50 [9]: 0.2 nM; PD-1 Signaling EC50 (PATHHUNTER Checkpoint Signaling Assay, reporter Jurkat cells), IgM [6]: 0.014 nM; EC50 [10]: 0.087 nM |
| B4 |  |  | 0.89 | 1.7 |  |  |  |
| B5 |  |  |  |  | 1.1 |  |  |
| B6 |  |  |  |  |  | 0.03 |  |
| B7 | no binding | no binding | 5.9 | 2.1 |  |  | EC50 [2]: 2.9 nM; EC50 [5]: 0.6 nM; PD-1 Signaling EC50 (method of Example 8), IgG [7]: 22 nM; PD-1 Signaling EC50 (method of Example 8), IgG/xlink (crosslinked IgG) [7]: 3.8 nM; PD-1 Signaling EC50, IgG/xlink (IgG crosslinked 1:1 with goat anti-human IgG F(ab')2 fragment) [8]: 4.8 nM |
| B8 | no binding | no binding |  |  | 0.1 | 0.29 | PD-1 Signaling EC50 (PATHHUNTER Checkpoint Signaling Assay, reporter Jurkat cells), IgM [6]: 0.72 nM; EC50 [10]: 0.35 nM |
| B9 |  |  |  |  |  |  | PD-1 Signaling EC50 (method of Example 8), IgHM [7]: 0.4 nM |
| B10 |  |  | 0.19 | 0.19 |  |  | PD-1 Signaling EC50 (method of Example 8), IgG [7]: 0.26 nM; PD-1 Signaling EC50 (method of Example 8), IgG/xlink (crosslinked IgG) [7]: 0.79 nM |
| B11 |  |  |  |  |  |  | PD-1 Signaling EC50 (method of Example 8), IgHM [7]: 0.2 nM |
| B12 |  |  |  |  | 0.065 | 0.13 |  |

— patent publication US20230212293A1 (published 2023)
